Experimental data reported in US20160297884A1.
Positions count from the first letter of the chain named. Names may count otherwise. Each block holds one binder with its values, some of them ahead of it.

Key:
[1] = molecular target: BCMA expressed on MM1S cells (human) (UniProt Q02223); assay: cell-based or functional assay
[2] = molecular target: B-cell maturation antigen (BCMA) (human) (UniProt Q02223); assay: cell-based or functional assay
Sequence of B-cell maturation antigen (BCMA) (human) (Q02223 whole entry): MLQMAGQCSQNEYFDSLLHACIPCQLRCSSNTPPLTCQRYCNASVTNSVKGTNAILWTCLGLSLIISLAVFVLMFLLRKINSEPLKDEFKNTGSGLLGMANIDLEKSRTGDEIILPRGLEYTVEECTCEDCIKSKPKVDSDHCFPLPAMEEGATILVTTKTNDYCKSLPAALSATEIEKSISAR

Sequence of BCMA expressed on MM1S cells (human) (Q02223 whole entry): as above

% CD107a+ (in CD8+) (degranulation, Donor 1, co-culture with MM1S) [1]: 46.4% | MFI CD107a+ (degranulation, CD8+ T cells, Donor 1, co-culture with MM1S) [1]: 1850 MFI
B1: P6AP-V1 (protein)
chain: EVQLLESGGGLVQPGGSLRLSCAASGFTFGSYAMTWVRQAPGKGLEWVSAISGSGGNTFYADSVKGRFTISRDNSKNTLYLQMNSLRAEDTAVYYCARVSPIAAPMDYWGQGTLVTVSSGGGGSGGGGSGGGGSEIVLTQSPGTLSLSPGERATLSCRASQLGSFYLAWYQQKPGQAPRLLIYGASSRATGIPDRFSGSGSGTDFTLTISRLEPEDFAVYYCQHYNYPPSFTFGQGTKVEIKGLAVSTISSFFPPGYQIYIWAPLAGTCGVLLLSLVITLYCKRGRKKLLYIFKQPFMRPVQTTQEEDGCSCRFPEEEEGGCELRVKFSRSADAPAYQQGQNQLYNELNLGRREEYDVLDKRRGRDPEMGGKPRRKNPQEGLYNELQKDKMAEAYSEIGMKGERRRGKGHDGLYQGLSTATKDTYDALHMQALPPR

% CD107a+ (in CD8+) (degranulation, MM1S cells, Donor 3) [2]: 68.2% | MFI CD107a+ (degranulation, MM1S cells, Donor 3) [2]: 1960 MFI
B3: PC1C12-V1 (protein)
chain: EVQLLESGGGLVQPGGSLRLSCAASGFTFSSYPMSWVRQAPGKGLEWVSAIGGSGGWSYYADSVKGRFTISRDNSKNTLYLQMNSLRAEDTAVYYCARYWPMDSWGQGTLVTVSSGGGGSGGGGSGGGGSEIVLTQSPGTLSLSPGERATLSCWLSQSVSSTYLAWYQQKPGQAPRLLIYDASSRAPGIPDRFSGSGSGTDFTLTISRLEPEDFAVYYCQQYSEWPLTFGQGTKVEIKGLAVSTISSFFPPGYQIYIWAPLAGTCGVLLLSLVITLYCKRGRKKLLYIFKQPFMRPVQTTQEEDGCSCRFPEEEEGGCELRVKFSRSADAPAYQQGQNQLYNELNLGRREEYDVLDKRRGRDPEMGGKPRRKNPQEGLYNELQKDKMAEAYSEIGMKGERRRGKGHDGLYQGLSTATKDTYDALHMQALPPR

% CD107a+ (in CD8+) (degranulation, MM1S cells, Donor 3) [2]: 75.6% | MFI CD107a+ (degranulation, MM1S cells, Donor 3) [2]: 2180 MFI
B4: PC1-V1 (protein)
chain: B3 chain with W57S, S58T, W154R, L155A, E224T, W225S

% CD107a+ (in CD8+) (degranulation, MM1S cells, Donor 3) [2]: 76.1% | MFI CD107a+ (degranulation, MM1S cells, Donor 3) [2]: 2220 MFI
B5: COM22-V1 (protein)
chain: EVQLLESGGGLVQPGGSLRLSCAASGFTFSSYAMNWVRQAPGKGLEWVSAISDSGGSRWYADSVKGRFTISRDNSKNTLYLQMNSLRAEDTAVYYCTRYWPMDIWGQGTLVTVSSGGGGSGGGGSGGGGSEIVLTQSPGTLSLSPGERATLSCRASVRVSSTYLAWYQQKPGQAPRLLMYDASIRATGIPDRFSGSGSGTDFTLTISRLEPEDFAVYYCQQYMKWPLTFGQGTKVEIKGLAVSTISSFFPPGYQIYIWAPLAGTCGVLLLSLVITLYCKRGRKKLLYIFKQPFMRPVQTTQEEDGCSCRFPEEEEGGCELRVKFSRSADAPAYQQGQNQLYNELNLGRREEYDVLDKRRGRDPEMGGKPRRKNPQEGLYNELQKDKMAEAYSEIGMKGERRRGKGHDGLYQGLSTATKDTYDALHMQALPPR

Continued, binder first:

B2: P5AC1-V1 (protein)
chain: EVQLLESGGGLVQPGGSLRLSCAASGFTFSSYAMNWVRQAPGKGLEWVSAILSSGGSTYYADSVKGRFTISRDNSKNTLYLQMNSLRAEDTAVYYCARYWPMDIWGQGTLVTVSSGGGGSGGGGSGGGGSEIVLTQSPGTLSLSPGERATLSCRGGQSVSSSYLAWYQQKPGQAPRLLMYDASIRATGIPDRFSGSGSGTDFTLTISRLEPEDFAVYYCQQYQSWPLTFGQGTKVEIKGLAVSTISSFFPPGYQIYIWAPLAGTCGVLLLSLVITLYCKRGRKKLLYIFKQPFMRPVQTTQEEDGCSCRFPEEEEGGCELRVKFSRSADAPAYQQGQNQLYNELNLGRREEYDVLDKRRGRDPEMGGKPRRKNPQEGLYNELQKDKMAEAYSEIGMKGERRRGKGHDGLYQGLSTATKDTYDALHMQALPPR
% CD107a+ (in CD8+) (degranulation, MM1S cells, Donor 2) [2]: 68.6% | MFI CD107a+ (degranulation, MM1S cells, Donor 2) [2]: 2190 MFI

B6: P5A-V1 (protein)
chain: B2 chain with L52S, S53D, G155A, G156S, Q223G
% CD107a+ (in CD8+) (degranulation, MM1S cells, Donor 2) [2]: 77.6% | MFI CD107a+ (degranulation, MM1S cells, Donor 2) [2]: 2670 MFI

B7: P5AC16-V1 (protein)
chain: B2 chain with L52S, S53D, S54F, G155A, G156S, S161D, S162L, S224T
% CD107a+ (in CD8+) (degranulation, MM1S cells, Donor 2) [2]: 61.6% | MFI CD107a+ (degranulation, MM1S cells, Donor 2) [2]: 1860 MFI
